Experimental data from the supplement of paper PMC9732359.
± gives the uncertainty stated by the source.

Assay: protein stability index of a GFP-peptide fusion (yeast GPS) (PSI 1-4); higher = more stable; sorted into four equal gates, so the index is relative within each strain
Summary of the method: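 Peptides tiling yeast proteins in 17-residue segments were fused downstream of GFP, with Cherry expressed from the same plasmid. As a pooled library in yeast, mid-log cultures grown in leucine-free medium were sorted into four equal gates by GFP/Cherry fluorescence ratio. Gate plasmids were PCR-amplified and Illumina-sequenced, and barcodes linked reads to strains. Each peptide received a protein stability index equal to the sum of each gate's read frequency times its gate number.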

Sequence | protein stability index (doa10∆) | protein stability index (pdr5∆) | protein stability index (san1∆) | protein stability index (ubr1∆)
YENSISKDLRSVWKPIA [IRR1] | 2.58 ± 0.092 | 2.63 ± 0.11 | 2.57 ± 0.064 | 2.54 ± 0.05
AINVFPEGYKAKSISTS [RPO31] | 2.03 ± 0.05 | 1.8 ± 0.057 | 2.27 ± 0.07 | 2.31 ± 0.059
NLDSSITQDGKFAYKID [YMR129W/POM152] | 2.38 ± 0.065 | 2.69 ± 0.064 | 2.26 ± 0.08 | 2.71 ± 0.05
KAKERLQALKANDEEAY [SNF2] | 1.81 ± 0.14 | 2.51 ± 0.15 | 2.55 ± 0.067 | 1.77 ± 0.045
GYENGMLAQWDLRSPEC [RPN14] | 3.15 ± 0.29 | 3.6 ± 0.2 | – | 3.65 ± 0.16
RQLAGAIGYEPLSLTHR [DIS3] | 2.94 ± 0.057 | 2.87 ± 0.057 | 2.86 ± 0.07 | 2.93 ± 0.041
KDEIVLSGNSVEDVSQN [RPL9A] | – | 3.52 ± 0.26 | – | –
EVSQFLIENGASVRIKD [NAS6] | 3.08 ± 0.21 | 2.39 ± 0.2 | – | 2.71 ± 0.12
LVPPPRTIANQDHFHRL [RPR2] | 3.01 ± 0.086 | 3.15 ± 0.069 | 2.88 ± 0.051 | 2.93 ± 0.066
MSVEPVVVIDGKGHLVG [RPL16A] | 3.13 ± 0.15 | 3.42 ± 0.19 | 2.63 ± 0.11 | 3.1 ± 0.089
LSILNEIKKVTQIVAKF [SIN4] | 3.13 ± 0.16 | 2.39 ± 0.14 | 2.37 ± 0.11 | 2.87 ± 0.091
EKTGKSASLKKIQQHNT [BRR2] | – | 2.96 ± 0.2 | – | –
DIVSIDIEEPQLDLLDD [MTW1] | 2.66 ± 0.098 | 3.17 ± 0.097 | 3.25 ± 0.05 | 3.16 ± 0.048
YMEPFDLDLNEQVRKMY [NSL1] | 2.88 ± 0.1 | 2.36 ± 0.079 | 3.1 ± 0.068 | 2.46 ± 0.052
GNNNNNNSGNDNNNTTN [MED2] | 3.06 ± 0.056 | 3.05 ± 0.058 | 3.08 ± 0.045 | 2.93 ± 0.078
KKMVYVLDSMTKEELES [SRP54] | 3.02 ± 0.086 | 2.85 ± 0.085 | 2.92 ± 0.091 | 3.04 ± 0.069
RSKGKQNRPYNHPELQG [RPC17] | 2.08 ± 0.047 | 2.32 ± 0.082 | 2.03 ± 0.088 | 1.94 ± 0.053
FVTQFRHLRRTGKVSEF [RET1] | 3.15 ± 0.24 | 2.5 ± 0.17 | 3.07 ± 0.093 | 2.41 ± 0.075
DLFGDSNKSNSTNESNK [SSN2] | 3.2 ± 0.078 | 3.3 ± 0.08 | 3.07 ± 0.064 | 3.29 ± 0.058
TTIEEIFLHSLPVKEFQ [RPS2] | 2.82 ± 0.067 | 2.78 ± 0.069 | 3.01 ± 0.067 | 2.79 ± 0.073
YSKIPNILSNKPGQNNR [RRP6] | 2.16 ± 0.087 | 2.37 ± 0.074 | 1.99 ± 0.16 | 1.77 ± 0.047
VHPDYLYGAITEDRYNE [FAS2] | 1.08 ± 0.092 | 1.34 ± 0.097 | 1.14 ± 0.15 | 1.27 ± 0.086
FQIDNDNIRYATALQTC [SMC2] | 1.8 ± 0.052 | 1.78 ± 0.047 | 1.45 ± 0.073 | 1.74 ± 0.052
RAIRSEKYGKQVYDLLK [BRR2] | – | – | 2.94 ± 0.18 | 3.26 ± 0.13
NNGLPMKNKAETTTEED [ITC1] | 2.35 ± 0.29 | 3.18 ± 0.1 | 2.94 ± 0.092 | 3.03 ± 0.12
KLINIKKFDISNDNLDL [MED1] | 2.83 ± 0.2 | 3.01 ± 0.15 | 2.48 ± 0.15 | 2.83 ± 0.096
GNGITNTTTRVIPQVEV [SNF5] | 3.02 ± 0.15 | 2.58 ± 0.095 | 1.98 ± 0.21 | 2.49 ± 0.1
FFLSIYFFYASRPEYSC [YJL039C/NUP192] | 1.41 ± 0.056 | 1.35 ± 0.13 | 1.19 ± 0.11 | 1.38 ± 0.057

Sequence | protein stability index (doa10∆) | protein stability index (pdr5∆) | protein stability index (san1∆) | protein stability index (ubr1∆)
AINPGRVAASFSQEALQ [FAS1] | 2.05 ± 0.15 | 2.53 ± 0.15 | 2.63 ± 0.13 | 1.98 ± 0.098
SAVVGPNGSGKSNVIDS [SMC4] | 3.13 ± 0.049 | 2.87 ± 0.043 | 3.06 ± 0.06 | 2.84 ± 0.033
AGKWFDPVLDWRKSDRE [SIR4] | 3.17 ± 0.088 | 3.44 ± 0.087 | 2.71 ± 0.14 | 3.18 ± 0.066
ITGGIIEETSAAIKDLD [RRP43] | 3.13 ± 0.2 | – | – | –
NTFTWNHSLQHQNESSA [RPN4] | 3.08 ± 0.056 | 3.19 ± 0.055 | 3.18 ± 0.058 | 3.17 ± 0.037
ERRMQVTAEDFKQAKER [RPT2] | 3.02 ± 0.1 | 3.29 ± 0.11 | 3 ± 0.088 | 3.56 ± 0.12
EIHPITFPPEVLARISP [RRP43] | 2.05 ± 0.041 | 2.57 ± 0.054 | 2.4 ± 0.049 | 1.94 ± 0.041
GILGNKAQAKMDKRAKN [RPL8A] | 3.59 ± 0.12 | 3.51 ± 0.14 | 3.41 ± 0.057 | 3.63 ± 0.076
KSTASTAAANTEKLSNG [YOR098C/NUP1] | 2.91 ± 0.23 | 3.11 ± 0.16 | 3.1 ± 0.12 | 3.31 ± 0.091
AFDVDRAKSCGVDAMSV [RPL1A] | 2.79 ± 0.092 | 2.73 ± 0.094 | 2.76 ± 0.091 | 2.71 ± 0.055
AELVQKYIGEGSRMVRE [RPT6] | 2.74 ± 0.088 | 2.69 ± 0.075 | 2.65 ± 0.075 | 2.33 ± 0.11
SALQQIMYQQMLKYRRL [SNF2] | 1.51 ± 0.045 | 1.43 ± 0.036 | 1.44 ± 0.091 | 1.35 ± 0.029
LRAAQQQWGNDFYKRDP [FAS2] | 2.44 ± 0.068 | 2.77 ± 0.051 | 2.32 ± 0.12 | 2.71 ± 0.047
DNNSKAEASFTFGTKHA [YLR335W/NUP2] | 3.21 ± 0.082 | 3.09 ± 0.076 | 2.93 ± 0.049 | 3.02 ± 0.053
VERIQKMIEKIEKMSTI [YIL149C/MLP2] | 3.13 ± 0.29 | 3.41 ± 0.14 | 2.81 ± 0.19 | –
ASDMSDEDIITIFKYLT [CDC53] | 2.84 ± 0.14 | 3.09 ± 0.13 | 3.23 ± 0.082 | 3.2 ± 0.061
ISTSDVTRIINSSEIQS [RPL4A] | 2.39 ± 0.04 | 2.64 ± 0.054 | 2.34 ± 0.071 | 2.58 ± 0.043
QEWLANLKLISVSLVDE [SIR4] | 2.77 ± 0.057 | 1.87 ± 0.047 | 2.46 ± 0.056 | 1.67 ± 0.039
EEELFEVTKEEDIIANY [RRP43] | 3.17 ± 0.088 | 3.08 ± 0.073 | 3.19 ± 0.11 | 3.43 ± 0.077
TARVMGGLKNGVLYQGN [DIS3] | 3.19 ± 0.069 | 3.3 ± 0.071 | 3.06 ± 0.047 | 3.13 ± 0.056
LSLYSTDLENSSLFQEK [ECM29] | 2.95 ± 0.069 | 2.81 ± 0.077 | 3 ± 0.053 | 2.77 ± 0.046
NVANVSGSTEKAFKICE [SIR3] | 2.96 ± 0.054 | 2.91 ± 0.048 | 3.18 ± 0.043 | 3.11 ± 0.058
TKRLGTPESVKPANASH [RGR1] | 2.37 ± 0.08 | 2.63 ± 0.077 | 2.26 ± 0.11 | 2.76 ± 0.095
GSYGSLLRFNGVERLIP [PRE4] | 2 ± 0.064 | 2.44 ± 0.069 | 2.04 ± 0.12 | 2.22 ± 0.12
IIKGTDVYSPEKGSWEQ [BRR2] | 3.1 ± 0.06 | 3.35 ± 0.075 | 3.24 ± 0.11 | 3.25 ± 0.13
ENSANSTVASALDTNGT [SIR4] | 3.08 ± 0.097 | 3.18 ± 0.073 | 2.79 ± 0.09 | 2.86 ± 0.069
FILTIATAFLGYCCVYG [COB] | 1.66 ± 0.098 | 1.27 ± 0.11 | 1.22 ± 0.22 | 1.36 ± 0.072
